Data reported in patent publication US20240400708A1.

Target: feline FcRn complex (FcRn-α subunit and β-microglobulin), biotin labeled (feline)
Experiment: SPR, pH 6

Row | Kd [nM] | Binder
1 | 7.33 | feline IgG1a D312H (antibody, part only; not given: Variable domains, not shown: another chain or arm of the molecule; small tags and cut ends) constant: ASTTAPSVFPLAPSCGTTSGATVALACLVLGYFPEPVTVSWNSGALTSGVHTFPAVLQASGLYSLSSMVTVPSSRWLSDTFTCNVAHPPSNTKVDKTVRKTDHPPGPKPCDCPKCPPPEMLGGPSIFIFPPKPKDTLSISRTPEVTCLVVDLGPDDSDVQITWFVDNTQVYTAKTSPREEQFNSTYRVVSVLPILHQHWLKGKEFKCKVNSKSLPSPIERTISKAKGQPHEPQVYVLPPAQEELSRNKVSVTCLIKSFHPPDIAVEWEITGQPEPENNYRTTPPQLDSDGTYFVYSKLSVDRSHWQRGNTYTCSVSHEALHSHHTQKSLTQSPGK
2 | 4.77 | feline IgG1a D401R (antibody, part only; not given: Variable domains, not shown: another chain or arm of the molecule) constant: ASTTAPSVFPLAPSCGTTSGATVALACLVLGYFPEPVTVSWNSGALTSGVHTFPAVLQASGLYSLSSMVTVPSSRWLSDTFTCNVAHPPSNTKVDKTVRKTDHPPGPKPCDCPKCPPPEMLGGPSIFIFPPKPKDTLSISRTPEVTCLVVDLGPDDSDVQITWFVDNTQVYTAKTSPREEQFNSTYRVVSVLPILHQDWLKGKEFKCKVNSKSLPSPIERTISKAKGQPHEPQVYVLPPAQEELSRNKVSVTCLIKSFHPPDIAVEWEITGQPEPENNYRTTPPQLDSRGTYFVYSKLSVDRSHWQRGNTYTCSVSHEALHSHHTQKSLTQSPGK
3 | 3.35 | feline IgG1a S434E (antibody, part only; not given: Variable domains, not shown: another chain or arm of the molecule) constant: ASTTAPSVFPLAPSCGTTSGATVALACLVLGYFPEPVTVSWNSGALTSGVHTFPAVLQASGLYSLSSMVTVPSSRWLSDTFTCNVAHPPSNTKVDKTVRKTDHPPGPKPCDCPKCPPPEMLGGPSIFIFPPKPKDTLSISRTPEVTCLVVDLGPDDSDVQITWFVDNTQVYTAKTSPREEQFNSTYRVVSVLPILHQDWLKGKEFKCKVNSKSLPSPIERTISKAKGQPHEPQVYVLPPAQEELSRNKVSVTCLIKSFHPPDIAVEWEITGQPEPENNYRTTPPQLDSDGTYFVYSKLSVDRSHWQRGNTYTCSVSHEALHEHHTQKSLTQSPGK
4 | 6.38 | feline IgG1a Q311L (antibody, part only; not given: Variable domains, not shown: another chain or arm of the molecule) constant: ASTTAPSVFPLAPSCGTTSGATVALACLVLGYFPEPVTVSWNSGALTSGVHTFPAVLQASGLYSLSSMVTVPSSRWLSDTFTCNVAHPPSNTKVDKTVRKTDHPPGPKPCDCPKCPPPEMLGGPSIFIFPPKPKDTLSISRTPEVTCLVVDLGPDDSDVQITWFVDNTQVYTAKTSPREEQFNSTYRVVSVLPILHLDWLKGKEFKCKVNSKSLPSPIERTISKAKGQPHEPQVYVLPPAQEELSRNKVSVTCLIKSFHPPDIAVEWEITGQPEPENNYRTTPPQLDSDGTYFVYSKLSVDRSHWQRGNTYTCSVSHEALHSHHTQKSLTQSPGK
5 | 5.84 | feline IgG1a D249E (antibody, part only; not given: Variable domains, not shown: another chain or arm of the molecule) constant: ASTTAPSVFPLAPSCGTTSGATVALACLVLGYFPEPVTVSWNSGALTSGVHTFPAVLQASGLYSLSSMVTVPSSRWLSDTFTCNVAHPPSNTKVDKTVRKTDHPPGPKPCDCPKCPPPEMLGGPSIFIFPPKPKETLSISRTPEVTCLVVDLGPDDSDVQITWFVDNTQVYTAKTSPREEQFNSTYRVVSVLPILHQDWLKGKEFKCKVNSKSLPSPIERTISKAKGQPHEPQVYVLPPAQEELSRNKVSVTCLIKSFHPPDIAVEWEITGQPEPENNYRTTPPQLDSDGTYFVYSKLSVDRSHWQRGNTYTCSVSHEALHSHHTQKSLTQSPGK
6 | 7.08 | feline IgG1a A431V (antibody, part only; not given: Variable domains, not shown: another chain or arm of the molecule) constant: ASTTAPSVFPLAPSCGTTSGATVALACLVLGYFPEPVTVSWNSGALTSGVHTFPAVLQASGLYSLSSMVTVPSSRWLSDTFTCNVAHPPSNTKVDKTVRKTDHPPGPKPCDCPKCPPPEMLGGPSIFIFPPKPKDTLSISRTPEVTCLVVDLGPDDSDVQITWFVDNTQVYTAKTSPREEQFNSTYRVVSVLPILHQDWLKGKEFKCKVNSKSLPSPIERTISKAKGQPHEPQVYVLPPAQEELSRNKVSVTCLIKSFHPPDIAVEWEITGQPEPENNYRTTPPQLDSDGTYFVYSKLSVDRSHWQRGNTYTCSVSHEVLHSHHTQKSLTQSPGK
7 | 4.49 | feline IgG1a S434A (antibody, part only; not given: Variable domains, not shown: another chain or arm of the molecule) constant: ASTTAPSVFPLAPSCGTTSGATVALACLVLGYFPEPVTVSWNSGALTSGVHTFPAVLQASGLYSLSSMVTVPSSRWLSDTFTCNVAHPPSNTKVDKTVRKTDHPPGPKPCDCPKCPPPEMLGGPSIFIFPPKPKDTLSISRTPEVTCLVVDLGPDDSDVQITWFVDNTQVYTAKTSPREEQFNSTYRVVSVLPILHQDWLKGKEFKCKVNSKSLPSPIERTISKAKGQPHEPQVYVLPPAQEELSRNKVSVTCLIKSFHPPDIAVEWEITGQPEPENNYRTTPPQLDSDGTYFVYSKLSVDRSHWQRGNTYTCSVSHEALHAHHTQKSLTQSPGK
8 | 6.73 | feline IgG1a A431R (antibody, part only; not given: Variable domains, not shown: another chain or arm of the molecule) constant: ASTTAPSVFPLAPSCGTTSGATVALACLVLGYFPEPVTVSWNSGALTSGVHTFPAVLQASGLYSLSSMVTVPSSRWLSDTFTCNVAHPPSNTKVDKTVRKTDHPPGPKPCDCPKCPPPEMLGGPSIFIFPPKPKDTLSISRTPEVTCLVVDLGPDDSDVQITWFVDNTQVYTAKTSPREEQFNSTYRVVSVLPILHQDWLKGKEFKCKVNSKSLPSPIERTISKAKGQPHEPQVYVLPPAQEELSRNKVSVTCLIKSFHPPDIAVEWEITGQPEPENNYRTTPPQLDSDGTYFVYSKLSVDRSHWQRGNTYTCSVSHERLHSHHTQKSLTQSPGK
9 | 5.89 | feline IgG1a E430I (antibody, part only; not given: Variable domains, not shown: another chain or arm of the molecule) constant: ASTTAPSVFPLAPSCGTTSGATVALACLVLGYFPEPVTVSWNSGALTSGVHTFPAVLQASGLYSLSSMVTVPSSRWLSDTFTCNVAHPPSNTKVDKTVRKTDHPPGPKPCDCPKCPPPEMLGGPSIFIFPPKPKDTLSISRTPEVTCLVVDLGPDDSDVQITWFVDNTQVYTAKTSPREEQFNSTYRVVSVLPILHQDWLKGKEFKCKVNSKSLPSPIERTISKAKGQPHEPQVYVLPPAQEELSRNKVSVTCLIKSFHPPDIAVEWEITGQPEPENNYRTTPPQLDSDGTYFVYSKLSVDRSHWQRGNTYTCSVSHIALHSHHTQKSLTQSPGK
10 | 6.75 | feline IgG1a D399T (antibody, part only; not given: Variable domains, not shown: another chain or arm of the molecule) constant: ASTTAPSVFPLAPSCGTTSGATVALACLVLGYFPEPVTVSWNSGALTSGVHTFPAVLQASGLYSLSSMVTVPSSRWLSDTFTCNVAHPPSNTKVDKTVRKTDHPPGPKPCDCPKCPPPEMLGGPSIFIFPPKPKDTLSISRTPEVTCLVVDLGPDDSDVQITWFVDNTQVYTAKTSPREEQFNSTYRVVSVLPILHQDWLKGKEFKCKVNSKSLPSPIERTISKAKGQPHEPQVYVLPPAQEELSRNKVSVTCLIKSFHPPDIAVEWEITGQPEPENNYRTTPPQLTSDGTYFVYSKLSVDRSHWQRGNTYTCSVSHEALHSHHTQKSLTQSPGK
11 | 5.41 | feline IgG1a D249A (antibody, part only; not given: Variable domains, not shown: another chain or arm of the molecule) constant: ASTTAPSVFPLAPSCGTTSGATVALACLVLGYFPEPVTVSWNSGALTSGVHTFPAVLQASGLYSLSSMVTVPSSRWLSDTFTCNVAHPPSNTKVDKTVRKTDHPPGPKPCDCPKCPPPEMLGGPSIFIFPPKPKATLSISRTPEVTCLVVDLGPDDSDVQITWFVDNTQVYTAKTSPREEQFNSTYRVVSVLPILHQDWLKGKEFKCKVNSKSLPSPIERTISKAKGQPHEPQVYVLPPAQEELSRNKVSVTCLIKSFHPPDIAVEWEITGQPEPENNYRTTPPQLDSDGTYFVYSKLSVDRSHWQRGNTYTCSVSHEALHSHHTQKSLTQSPGK
12 | 5.66 | feline IgG1a S434D (antibody, part only; not given: Variable domains, not shown: another chain or arm of the molecule) constant: ASTTAPSVFPLAPSCGTTSGATVALACLVLGYFPEPVTVSWNSGALTSGVHTFPAVLQASGLYSLSSMVTVPSSRWLSDTFTCNVAHPPSNTKVDKTVRKTDHPPGPKPCDCPKCPPPEMLGGPSIFIFPPKPKDTLSISRTPEVTCLVVDLGPDDSDVQITWFVDNTQVYTAKTSPREEQFNSTYRVVSVLPILHQDWLKGKEFKCKVNSKSLPSPIERTISKAKGQPHEPQVYVLPPAQEELSRNKVSVTCLIKSFHPPDIAVEWEITGQPEPENNYRTTPPQLDSDGTYFVYSKLSVDRSHWQRGNTYTCSVSHEALHDHHTQKSLTQSPGK
13 | 11.8 | feline IgG1a S434C (antibody, part only; not given: Variable domains, not shown: another chain or arm of the molecule) constant: ASTTAPSVFPLAPSCGTTSGATVALACLVLGYFPEPVTVSWNSGALTSGVHTFPAVLQASGLYSLSSMVTVPSSRWLSDTFTCNVAHPPSNTKVDKTVRKTDHPPGPKPCDCPKCPPPEMLGGPSIFIFPPKPKDTLSISRTPEVTCLVVDLGPDDSDVQITWFVDNTQVYTAKTSPREEQFNSTYRVVSVLPILHQDWLKGKEFKCKVNSKSLPSPIERTISKAKGQPHEPQVYVLPPAQEELSRNKVSVTCLIKSFHPPDIAVEWEITGQPEPENNYRTTPPQLDSDGTYFVYSKLSVDRSHWQRGNTYTCSVSHEALHCHHTQKSLTQSPGK
14 | 6.64 | feline IgG1a A431Q (antibody, part only; not given: Variable domains, not shown: another chain or arm of the molecule) constant: ASTTAPSVFPLAPSCGTTSGATVALACLVLGYFPEPVTVSWNSGALTSGVHTFPAVLQASGLYSLSSMVTVPSSRWLSDTFTCNVAHPPSNTKVDKTVRKTDHPPGPKPCDCPKCPPPEMLGGPSIFIFPPKPKDTLSISRTPEVTCLVVDLGPDDSDVQITWFVDNTQVYTAKTSPREEQFNSTYRVVSVLPILHQDWLKGKEFKCKVNSKSLPSPIERTISKAKGQPHEPQVYVLPPAQEELSRNKVSVTCLIKSFHPPDIAVEWEITGQPEPENNYRTTPPQLDSDGTYFVYSKLSVDRSHWQRGNTYTCSVSHEQLHSHHTQKSLTQSPGK
15 | 5.24 | feline IgG1a D249S (antibody, part only; not given: Variable domains, not shown: another chain or arm of the molecule) constant: ASTTAPSVFPLAPSCGTTSGATVALACLVLGYFPEPVTVSWNSGALTSGVHTFPAVLQASGLYSLSSMVTVPSSRWLSDTFTCNVAHPPSNTKVDKTVRKTDHPPGPKPCDCPKCPPPEMLGGPSIFIFPPKPKSTLSISRTPEVTCLVVDLGPDDSDVQITWFVDNTQVYTAKTSPREEQFNSTYRVVSVLPILHQDWLKGKEFKCKVNSKSLPSPIERTISKAKGQPHEPQVYVLPPAQEELSRNKVSVTCLIKSFHPPDIAVEWEITGQPEPENNYRTTPPQLDSDGTYFVYSKLSVDRSHWQRGNTYTCSVSHEALHSHHTQKSLTQSPGK
16 | 6.58 | feline IgG1a E430Q (antibody, part only; not given: Variable domains, not shown: another chain or arm of the molecule) constant: ASTTAPSVFPLAPSCGTTSGATVALACLVLGYFPEPVTVSWNSGALTSGVHTFPAVLQASGLYSLSSMVTVPSSRWLSDTFTCNVAHPPSNTKVDKTVRKTDHPPGPKPCDCPKCPPPEMLGGPSIFIFPPKPKDTLSISRTPEVTCLVVDLGPDDSDVQITWFVDNTQVYTAKTSPREEQFNSTYRVVSVLPILHQDWLKGKEFKCKVNSKSLPSPIERTISKAKGQPHEPQVYVLPPAQEELSRNKVSVTCLIKSFHPPDIAVEWEITGQPEPENNYRTTPPQLDSDGTYFVYSKLSVDRSHWQRGNTYTCSVSHQALHSHHTQKSLTQSPGK
